# Test results as given in patent publication US20240093255A1, “BIOSYNTHETIC PRODUCTION OF 2-FUCOSYLLACTOSE” (Conagen Inc., priority 2020, published 2024).
# B1: ASR 12: FutC mutant from ancestral sequence reconstruction, SEQ ID NO: 109 (protein)
# chain: MIIIRMSGGLGNQMFQYALYRKLKSMGKEVKIDDITGYEDDNQRSIMLDVFGIDYDKATKEEITKLTDSSMDFLSRIRRKLFGRKSKEYQEEDFNFDPQVLEMDDAYLEGYFQSEKYFQDVREQLRKEFTFRKNSVPELSEQTKELRKQIENSNSVSIHIRRGDYLENSHAEIYGGICTDDYYKKAIEYMKEKFPDAKFYIFSNDIEWAKQHFKGENFVIVDASEENTGYADMYLMSKCKHHIIANSSFSWWGAWLNDNPEKIVIAPSKWLNNKECKDIYTDRMIKIDAKGEVRSEDYGVRTNSTVK
# modifications: ASR12
# Legend:
# [1] = expressed in E. coli
# From the text: One of the major limitations for 2′-FL production is FutC activity. After screening various FutC candidates as described in Example 5, the inventors sought to identify mutant FutC candidates with even higher activity and improved solubility using bioinformatics. Based on ancestral sequence reconstruction (ASR) analysis, a series of ASR mutants were designed (Table 5) and screened for their solubility and activity.
# (§1) The enzymes listed in Table 5 were expressed in E. coli, and the clarified lysate was normalized based on the OD600 standard curve and used to screen for activity. To the clarified lysate was added 50 mM Tris pH 7.5, 1 mM GDP-L-fucose, and 80 mM lactose, and the reactions were quenched by heating at 99° C. for 10 minutes, and analyzed using the 2′-FL HPLC method.
# [2] = ASR library activity screen in clarified E. coli lysate; format: biochemical; settings: 1 mM GDP-L-fucose, 80 mM lactose
# Procedure: as §1
# [3] = In vitro enzyme cascade converting L-galactose to 2′-FL; format: biochemical; settings: 10 mM L-galactose, 0.2 g/L FutC, quenched at 3 hours and 22 hours
# Procedure: The reaction conditions were: 50 mM Tris pH 7.5, 10 mM L-galactose, 2 mM ATP, 2 mM GTP, 25 mM acetyl phosphate, 5 mM magnesium chloride, 5 mM potassium chloride, 0.15 mM NADP^+, 0.5 mM NADPH, 40 mM lactose, 0.23 g/L […] (FKP, SEQ ID NO: 1), 0.06 g/L an acetate kinase for the ATP recycling system (Gs Ack, SEQ ID NO: 65), 0.3 g/L At GMD (SEQ ID NO: 79), 0.75 g/L WcaG (SEQ ID NO: 7) and 0.2 g/L ASR 12 (SEQ ID NO: 109). The reactions were quenched by heating at 99° C. […] and analyzed using the 2′-FL LC-MS method.
# [4] = Activity comparison of purified FutC enzymes; format: biochemical; settings: 2 mM GDP-L-fucose, 40 mM lactose, 0.5 mg/mL FutC
# Procedure: An assay was performed to compare the activity of the ASR11 and ASR12 enzymes to the activity of the parent construct, FutC #5 (SEQ ID NO: 29) and Helicobacter pylori FutC (HpFutC, SEQ ID NO: 61), an enzyme commonly used for 2′-FL production. Specifically, the assay conditions were: 2 mM GDP-L-fucose, 40 mM lactose, 50 mM Tris pH 7.5, and 0.5 mg/mL FutC.
molecule,measurement,setting,value
B1,solubility compared to the rest of the ASR library,[1],improved
same,activity compared to the rest of the ASR library,[2],improved
same,2′-FL production compared to FutC #5 and Hp FutC,[3],significantly higher
same,FutC activity compared to Hp FutC and parent FutC 5,[4],outperformed Hp FutC as well as the parent construct
